From patent US20230047413A1 (Janssen / Centocor, published 2023)

Key:
Peptide-1 = target: T1, Peptide-1 (human, phosphothreonine 212, phosphoserine 214, phosphothreonine 217 (tau 2N4R numbering); short chain biotin (SCBiot) and dPEG4 at the N-terminus; amide at the C-terminus); assay: SPR ProteOn, peptide captured, Fab as analyte; range of n=2; Peptide-1 (pT212/pS214/pT217); upper end of n=2 range
T1 construct: also called tau peptide phosphorylated at T212/S214/T217
Protocol: The binding affinity of PT3 Fab towards each of the fourteen tau phosphopeptides shown in Table 6 was assessed by surface plasmon resonance (SPR) using a Bio-Rad ProteOn XPR36. Peptides were synthesized by standard chemical methods (New England Peptide) with short-chain biotin and a PEG4 moiety at the N-terminus. Biotinylated peptide was captured on a neutravidin-coated NLC biosensor chip and PT3 Fab was flowed over the surface to measure kinetic parameters.
All experiments were performed at 25° C. using phosphate buffered saline, pH 7.4, 0.005% Tween 20 (PBST) as both running buffer and sample dilution buffer. Prior to running samples, the NLC chip was conditioned by running PBST over the chip surface for 1 h. Approximately 5-10 RU of peptide was captured on the chip surface by diluting peptide to 10 ng/mL in PBST and injecting over the flow channels at 30 μL/min for 100 s. Serial dilutions of PT3 Fab (1.1-90 nM) were analyzed and, with the exception of Peptide-8, each concentration was measured in duplicate. After capture of peptides, the antibody titration was injected at 60 μL/min for 3 minutes (association phase), followed by 300 s of buffer only (dissociation phase).
The data were double referenced by subtraction of the interspot response and the curves generated by the buffer-only injection. […] The data were analyzed using a simple Langmuir 1:1 binding model.

Peptide-2 = target: T2, Peptide-2 (human, phosphothreonine 212, phosphothreonine 217 (tau 2N4R numbering); short chain biotin (SCBiot) and dPEG4 at the N-terminus; amide at the C-terminus); assay: SPR ProteOn, peptide captured, Fab as analyte; range of n=2; Peptide-2 (pT212/pT217); Table 12 run; lower end of n=2 range
T2 construct: also called pT212/pT217-tau peptide (Peptide-2)
Protocol: A subset of HFA-PT3 monoclonal antibody variants, selected based on biophysical characterization and ELISA binding to PHF, were analyzed by Surface Plasmon Resonance (SPR) with a ProteOn XPR36 for binding to the following phosphopeptides: pT212/pT217-tau peptide (Peptide-2, SEQ ID NO: 48) and pT212-tau peptide (Peptide-8, SEQ ID NO: 54). All experiments were performed at 25° C. using PBST, pH 7.4, (Bio-Rad Cat#176-2720) as both running buffer and sample dilution buffer.
Fab/peptide binding. Biotinylated peptide was captured on a neutravidin-coated NLC biosensor chip pre-conditioned with PBST, and Fab was flowed over the surface to measure kinetic parameters. Approximately 5-10 RU of peptide was captured on the chip surface by diluting peptide to 10 ng/mL in PBST and injecting over the flow channels at 30 μL/min for 100 s. Serial dilutions of PT3 Fab (1.1 nM to 90 nM) were injected at 60 μL/min for 3 minutes (association phase), followed by 300 s of buffer only (dissociation phase).
Data were double referenced by subtraction of the interspot response, and the curves generated by the buffer only injection. The chip surface was regenerated with 0.85% phosphoric acid, followed by PBST injection before the next antibody titration injection. Data processing and analysis were performed using instrument software. The data were fit using a simple Langmuir 1:1 binding model.

T2 sequence (peptide, as listed by the source): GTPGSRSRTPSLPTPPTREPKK

B1: PT3 Fab (B187) (Fab, V domains shown)
VH: EVKLVESGGDLVKPGGSLKLSCAASGFTFSSYAMSWVRQNPEKRLEWVASISKGGNTYYPNSVKGRFTISRDNARNILYLQMSSLRSEDTALYYCARGWGDYGWFAYWGQVTLVTVSA
VL: DIKMTQSPSSMYASLGERVTITCKASQDINRYLNWFQQKPGKSPKTLIYRANRLLDGVPSRFSGSGSGQDYSLTISSLDYEDMGIYYCLQYDEFPLTFGDGTKLELK
notes: Chimeric Fab: mouse variable regions, human IgG1/kappa constant region, 6xHis tag at the C-terminus of the heavy chain; also called mouse parental Fab of PT3
A Kd (Peptide-1) of 0.14 to 0.38 nM and a Kd (Peptide-2) of 0.0738 to 0.101 nM were found for B1 in this work.
